The source of these data is patent US5041542A, “Substituted pyrimido[5,4-d]pyrimidine nucleosides” (Nucleic Acid Research Institute, priority 1988, dated 1991).

Substrate in the series: Nc1ncnc2c1ncn2[C@@H]1O[C@H](CO)[C@@H](O)[C@H]1O
In words: Adenosine kinase inhibition (filter binding assay). It counts as biochemical, human. Particulars: other: adenosine as substrate; 37.0 °C.

B1: WI-L2 adenosine kinase (Homo sapiens) (protein)
chain: MAAAEEEPKPKKLKVEAPQALRENILFGMGNPLLDISAVVDKDFLDKYSLKPNDQILAEDKHKELFDELVKKFKVEYHAGGSTQNSIKVAQWMIQQPHKAATFFGCIGIDKFGEILKRKAAEAHVDAHYYEQNEQPTGTCAACITGDNRSLIANLAAANCYKKEKHLDLEKNWMLVEKARVCYIAGFFLTVSPESVLKVAHHASENNRIFTLNLSAPFISQFYKESLMKVMPYVDILFGNETEAATFAREQGFETKDIKEIAKKTQALPKMNSKRQRIVIFTQGRDDTIMATESEVTAFAVLDQDQKEIIDTNGAGDAFVGGFLSQLVSDKPLTECIRAGHYAASIIIRRTGCTFPEKPDFH
notes: added to the cell-free WI-L2 lysate to give 5 μM final assay concentration; endogenous in cells; host or cells: WI-L2 B lymphoblast cells (cell-free lysate)
What is called Km is the substrate concentration at which the rate is half of its maximum. On to B1, for which the Km came to 0.9 µM.
